One molecule from patent US20220396626A1 (GUANGZHOU BIO GENE TECHNOLOGY, published 2022) can be followed below.

For orientation: Kd means the constant that tells how readily two partners part at equilibrium. The term koff denotes the first-order rate constant of dissociation. In general, kon refers to the rate constant with which the complex forms. For orientation: EC50 means the concentration giving half of the maximal effect.

Experiment [1] addresses T1, Recombinant Human CLL-1 Protein (his), Acro CLA-H5245 (human, UniProt Q5QGZ9 65-265).
T1 construct: also called Analyte 1; not shown: his tag
T1 sequence (looked up): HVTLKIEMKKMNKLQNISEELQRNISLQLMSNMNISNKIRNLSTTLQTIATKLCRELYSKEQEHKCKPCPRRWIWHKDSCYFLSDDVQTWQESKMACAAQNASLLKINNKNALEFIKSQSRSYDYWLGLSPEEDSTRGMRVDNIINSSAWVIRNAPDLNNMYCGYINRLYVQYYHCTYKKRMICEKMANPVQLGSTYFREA
As to the kind of experiment: SPR, antibody captured on Protein A chip, recombinant human CLL-1 as analyte 3.125-50 nM, 1:1 model. A general note: SPR reads the build-up and loss of mass on a sensor chip optically.

Experiment [2] concerns the target T2, human CLL1 on the surface of transfected cells (HEK293-CLL1; HEK-293T membrane proteome array) (human, UniProt Q5QGZ9 1-265).
T2 construct: whole, on cells; also called HEK293-CLL1 cells; CLL1 target antigen
T2 sequence (looked up): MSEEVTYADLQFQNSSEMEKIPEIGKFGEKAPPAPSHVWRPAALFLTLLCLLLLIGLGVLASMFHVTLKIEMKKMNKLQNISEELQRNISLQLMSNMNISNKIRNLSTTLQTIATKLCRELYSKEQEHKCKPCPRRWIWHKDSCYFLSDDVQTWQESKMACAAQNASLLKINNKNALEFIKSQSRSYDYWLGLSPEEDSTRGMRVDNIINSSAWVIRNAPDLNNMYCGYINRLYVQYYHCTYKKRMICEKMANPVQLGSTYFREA
The experiment can be described thus: flow cytometry on HEK293 cells overexpressing CLL1. From the text:
In the present example, flow cytometry was used to detect the binding of antibodies hz27H4H1L1, hz27H4H1L2 and CLL1 on HEK293 cells.
In general terms: Flow cytometry measures light scatter and fluorescence of single cells or particles in a stream.

Experiment [3] has as its target T3, human CLL1 ECD-His (human CLL1 extracellular domain with His tag) (human, UniProt Q5QGZ9 65-265).
T3 construct: also called antigen human CLL1 ECD-His; antigen CLL1; not shown: His tag
T3 sequence: T1 sequence (looked up)
The experiment can be described thus: BLI (ForteBio), antibody on AHC sensor, 60 nM human CLL1 ECD-His, 1:1 model. As to the method: In short, 4 μg/mL antibody was loaded on the anti-human IgG capture (AHC) biosensor, the sensor was equilibrated offline for 30 min in the assay buffer, and the online monitoring was used for 60 s to establish the baseline; the antibody-loaded sensor was incubated with the 60 nM antigen human CLL1 ECD-His for 3 min, then transferred to the assay buffer, and the dissociation rate was measured after 3 min; the kinetic analysis was performed using a 1:1 binding model.
A general note: Biolayer interferometry detects binding as a change in optical thickness at a sensor tip.

In experiment [4] the target is T4, Recombinant Cynomolgus Monkey CLL-1 Protein (his), Acro CLA-H5263 (cynomolgus monkey, UniProt A0A2K5WXQ4 71-271).
T4 construct: also called Analyte 2
T4 sequence: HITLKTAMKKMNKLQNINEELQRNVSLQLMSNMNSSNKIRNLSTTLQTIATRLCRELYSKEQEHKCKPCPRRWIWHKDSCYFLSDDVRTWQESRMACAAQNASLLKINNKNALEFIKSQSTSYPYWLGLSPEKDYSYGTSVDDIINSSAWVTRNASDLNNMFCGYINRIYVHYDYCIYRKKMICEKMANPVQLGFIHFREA
As to the kind of experiment: SPR, antibody captured on Protein A chip, cynomolgus CLL-1 as analyte.

B1: humanized antibody hz27H4H1L2 (antibody, V domains shown)
VH: EVQLVQSGAEVKKPGASVKVSCKASGYTFTGYHMHWVRQAPGQRLEWMGRINPYNGAASHNQKFKDRVTITRDTSASTAYMELSSLRSEDTAVYYCARGWDYDGGYYAMDYWGQGTLVTVSS
VL: DIVMTQSPLSLPVTPGEPASISCKSSQSLLYSDNQKNYLAWYLQKPGQSPQLLIYWASTRESGVPDRFSGSGSGTDFTLKISRVEAEDVGVYYCQQYYTYPYTFGQGTKLEIK
notes: Heavy chain variable region hz27H4H1 with light chain variable region hz27H4L2; also called h27H4H1L2 (complete antibody)
For B1, in experiment [1], the Kd came to 1.08 nM, the off-rate constant (koff) was found to be 0.00544 s⁻¹ and the association rate constant (kon) is 5.04e+06 M⁻¹ s⁻¹. This molecule registered an EC50 in experiment [2] of 0.321 µg/mL. In experiment [3], the Kd came out at 2.21 nM, the Response was 0.726, the koff turned out to be 0.000976 s⁻¹ and the kon came out at 441000 M⁻¹ s⁻¹. In addition, in experiment [4], the binding result was “no binding (tested: 50 nM)”.
